# Source: article PMC5071832, “Molecular basis for catalysis and substrate-mediated cellular stabilization of human tryptophan 2,3-dioxygenase” (Scientific Reports, 2016)
# B1: human tryptophan 2,3-dioxygenase (enzyme)
# chain: LPVEGSEEDKSQTGVNRASKGGLIYGNYLHLEKVLNAQELQSETKGNKIHDEHLFIITHQAYELWFKQILWELDSVREIFQNGHVRDERNMLKVVSRMHRVSVILKLLVQQFSILETMTALDFNDFREYLSPASGFQSLQFRLLENKIGVLQNMRVPYNRRHYRDNFKGEENELLLKSEQEKTLLELVEAWLERTPGLEPHGFNFWGKLEKNITRGLEEEFIRIQAKEESEEKEEQVAEFQKQKEVLLSLFDEKRHEHLLSKGERRLSYRALQGALMIYFYREEPRFQVPFQLLTSLMDIDSLMTKWRYNHVCMVHRMLGSKAGTGGSSGYHYLRSTVSDRYKVFVDLFNLSTYLIPRHWIPKMNPTIHKFL
# notes: tryptophan 2,3-dioxygenase, human; Heme protein, crystallized in the ferrous state with L-Trp (and O2 or NFK); The construct lacks the N-terminal residues up to at least K17, and K37 lies in a disordered region; also called hTDO; TDO; source: recombinant, purified; oxidized with potassium ferricyanide, G25 column
# Target: the molecule itself
# Experiment: crystal structure; ferrous hTDO (45 mg/ml) with 10 mM L-Trp, under-oil microbatch, anaerobic, 18 °C; precipitant 50 mM sodium citrate pH 5.6, 5% PEG 3350, 2% Tacsimate pH 5; one crystal mounted anaerobically, one soaked overnight in O2-saturated solution; four subunits (A-D) form the tetramer
protein,measurement,value
B1,stoichiometry N,4
